# ± gives the standard deviation of the averaged measurements.
# B1: library; a variant is named by its letters at N, in order (parent)
# chain: GCUGUCACCGGUGCUUGGUACGUUAUAUUCAGCCGGUCUGAUGAGUCUNNNNNNAGACGAAACAGC
# Experiments:
# (6R,S)-folinic acid [1] = variants of: B1; experiment: normalized RNA/DNA level without ligand (relative to sTRSVctl = 100) (log10 (% of sTRSVctl)); HEK293T overexpressing SLC46A1; higher = less ribozyme self-cleavage, higher mRNA level; conditions: without (6R,S)-folinic acid; ligand present: no
# Summary of the method: (§1)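 Only sequences with at least 100 DNA reads were analyzed, from HEK293T cells transfected with 4 µg per 6-well well of ribozyme switch library plasmids 72 h before RNA extraction with EDTA. Any ligand was added 1 h before transfection. RNA level was defined as RNA over DNA reads, normalized to a spiked-in non-cleaving sequence or to the top sequences, then scaled and log-transformed. The top set was 25 sequences, and the scaling was ×100 followed by log10.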
# (6R,S)-folinic acid [2] = variants of: B1; experiment: normalized RNA/DNA level with ligand (relative to sTRSVctl = 100) (log10 (% of sTRSVctl)); HEK293T overexpressing SLC46A1; ligand concentration (+) RNA-Seq: 6 mM; higher = less ribozyme self-cleavage, higher mRNA level; conditions: with (6R,S)-folinic acid; ligand present: yes
# Summary of the method: as §1
Variant,"normalized RNA/DNA level without ligand (log10) ((6R,S)-folinic acid [1])","normalized RNA/DNA level with ligand (log10) ((6R,S)-folinic acid [2])"
UGAUCU,1.995 ± 0.012,2.04 ± 0.091
AGAUCU,2.0242 ± 0.00035,2.05 ± 0.032
CGAUGA,2.011 ± 0.0023,2.02 ± 0.078
GGAUGA,2.024 ± 0.02,2.058 ± 0.0075
CGAUGC,2.039 ± 0.0072,2.008 ± 0.0096
GGAUGC,1.912 ± 0.002,1.962 ± 0.015
UGAUGC,1.954 ± 0.013,1.998 ± 0.01
AGAUGC,2.017 ± 0.0026,2.03 ± 0.021
CGAUGG,1.928 ± 0.017,1.972 ± 0.019
GGAUGG,1.948 ± 0.012,2.02 ± 0.033
CGAUGU,1.98 ± 0.0073,1.99 ± 0.047
GGAUGU,1.972 ± 0.0047,2.03 ± 0.052
AGAUGU,1.971 ± 0.0095,2.02 ± 0.036
CGAUUA,1.958 ± 0.017,1.992 ± 0.013
GGAUUA,2.014 ± 0.0063,2.0315 ± 0.0011
CGAUUC,2.089 ± 0.019,2.08 ± 0.048
UGAUUC,2.058 ± 0.0048,2.04 ± 0.04
CGAUUG,2.028 ± 0.018,2.02 ± 0.035
GGAUUG,1.996 ± 0.0084,2.05 ± 0.053
AGAUUG,1.89 ± 0.014,2.004 ± 0.018
CGAUUU,1.984 ± 0.0069,2 ± 0.026
UGAUUU,1.9907 ± 0.00083,2.02 ± 0.023
AGAUUU,2.0581 ± 0.0011,2.04 ± 0.024

Variant,"normalized RNA/DNA level without ligand (log10) ((6R,S)-folinic acid [1])","normalized RNA/DNA level with ligand (log10) ((6R,S)-folinic acid [2])"
CGCAAA,1.9697 ± 0.001,1.988 ± 0.0069
GGCAAA,2.069 ± 0.0036,2.04 ± 0.044
GGCAAC,2.057 ± 0.0039,2.04 ± 0.0099
UGCAAC,1.95 ± 0.0091,1.99 ± 0.029
AGCAAC,2.004 ± 0.0095,2.01 ± 0.038
CGCAAG,2.011 ± 0.0045,2.02 ± 0.025
GGCAAG,2.034 ± 0.007,2.003 ± 0.017
UGCAAG,1.778 ± 0.01,1.96 ± 0.029
AGCAAG,1.935 ± 0.0032,2.01 ± 0.025
CGCAAU,1.9357 ± 0.0015,1.968 ± 0.014
GGCAAU,2.057 ± 0.01,2.04 ± 0.03
AGCAAU,1.995 ± 0.0032,2.01 ± 0.033
CGCACA,1.989 ± 0.0068,1.98 ± 0.026
GGCACA,2.085 ± 0.009,2.03 ± 0.031
UGCACA,1.97 ± 0.024,2.01 ± 0.036
AGCACA,2.0177 ± 0.00097,2 ± 0.04
CGCACC,2.079 ± 0.014,2.07 ± 0.063
UGCACC,2.036 ± 0.0046,1.98 ± 0.028
AGCACC,2.08 ± 0.031,2 ± 0.03
CGCACG,2.046 ± 0.0062,2.026 ± 0.018
GGCACG,2.047 ± 0.014,2.03 ± 0.038
UGCACG,1.8081 ± 0.0015,1.977 ± 0.013
AGCACG,1.99 ± 0.033,2.025 ± 0.01

Variant,"normalized RNA/DNA level without ligand (log10) ((6R,S)-folinic acid [1])","normalized RNA/DNA level with ligand (log10) ((6R,S)-folinic acid [2])"
CGCACU,2.0385 ± 0.00015,2.01 ± 0.034
UGCACU,2.017 ± 0.0058,2.04 ± 0.033
CGCAGA,2.039 ± 0.0068,2.051 ± 0.015
GGCAGA,2.077 ± 0.0039,2.033 ± 0.004
GGCAGC,2.001 ± 0.008,1.98 ± 0.032
UGCAGC,1.982 ± 0.0063,2.012 ± 0.018
AGCAGC,2.028 ± 0.0032,2.03 ± 0.054
CGCAGG,1.953 ± 0.012,2.03 ± 0.039
GGCAGG,2.064 ± 0.015,2.045 ± 0.0058
AGCAGG,1.944 ± 0.0028,2.01 ± 0.042
CGCAGU,2.037 ± 0.015,2.04 ± 0.049
GGCAGU,2.058 ± 0.0031,2.013 ± 0.0043
UGCAGU,1.9094 ± 0.0015,1.96 ± 0.026
AGCAGU,1.991 ± 0.0037,2.01 ± 0.028
UGCAUA,1.948 ± 0.015,1.99 ± 0.068
AGCAUA,1.985 ± 0.014,2.017 ± 0.016
CGCAUC,2.08 ± 0.021,1.97 ± 0.036
GGCAUC,2.055 ± 0.014,2.03 ± 0.033
UGCAUC,2.07 ± 0.032,2.035 ± 0.015
AGCAUC,2.082 ± 0.012,2.0495 ± 0.0016
CGCAUG,2.01 ± 0.019,2.01 ± 0.022
GGCAUG,2.064 ± 0.0071,2.03 ± 0.033
AGCAUG,1.957 ± 0.004,2.03 ± 0.018

Variant,"normalized RNA/DNA level without ligand (log10) ((6R,S)-folinic acid [1])","normalized RNA/DNA level with ligand (log10) ((6R,S)-folinic acid [2])"
GGCAUU,2.08 ± 0.025,2.04 ± 0.039
AGCAUU,2.012 ± 0.0048,2.01 ± 0.028
CGCCAA,1.973 ± 0.014,2.02 ± 0.048
AGCCAA,1.9858 ± 0.00027,1.99 ± 0.037
CGCCAC,2 ± 0.028,1.99 ± 0.042
GGCCAC,2.022 ± 0.0039,1.99 ± 0.016
AGCCAC,2.016 ± 0.003,2 ± 0.037
GGCCAG,2.037 ± 0.0046,2.016 ± 0.02
UGCCAG,1.812 ± 0.0093,1.9581 ± 0.00078
AGCCAG,1.985 ± 0.0073,2.04 ± 0.035
CGCCAU,1.986 ± 0.0097,1.98 ± 0.034
UGCCAU,1.982 ± 0.0048,2 ± 0.021
AGCCAU,1.986 ± 0.013,1.99 ± 0.029
CGCCCA,2.068 ± 0.0022,2.06 ± 0.033
GGCCCA,2.053 ± 0.01,2.032 ± 0.012
UGCCCA,2.007 ± 0.0092,1.99 ± 0.018
AGCCCA,2.045 ± 0.0089,2.02 ± 0.028
CGCCCC,2.082 ± 0.017,2.04 ± 0.057
GGCCCC,2.023 ± 0.0026,2.01 ± 0.026
UGCCCC,2.03 ± 0.04,2.01 ± 0.07
AGCCCC,2.051 ± 0.0083,2 ± 0.036
CGCCCG,2.03 ± 0.029,2.031 ± 0.0094
GGCCCG,2.07 ± 0.0078,2.07 ± 0.023

Variant,"normalized RNA/DNA level without ligand (log10) ((6R,S)-folinic acid [1])","normalized RNA/DNA level with ligand (log10) ((6R,S)-folinic acid [2])"
UGCCCG,1.95 ± 0.022,2.01 ± 0.07
AGCCCG,2.02 ± 0.0096,2.02 ± 0.0065
CGCCCU,2.09 ± 0.04,2.092 ± 0.017
GGCCCU,2.099 ± 0.012,2.061 ± 0.013
UGCCCU,2.061 ± 0.0087,2.06 ± 0.043
AGCCCU,2.078 ± 0.009,2.05 ± 0.042
CGCCGA,2.027 ± 0.0027,2.08 ± 0.044
GGCCGA,2.081 ± 0.0077,2.05 ± 0.037
UGCCGA,1.9547 ± 0.0011,2.02 ± 0.046
AGCCGA,2.004 ± 0.0033,2.02 ± 0.025
CGCCGC,2.062 ± 0.0024,2.03 ± 0.047
GGCCGC,2.073 ± 0.012,2.083 ± 0.011
UGCCGC,2.03 ± 0.031,2.02 ± 0.048
AGCCGC,2.037 ± 0.0083,2.02 ± 0.044
CGCCGG,2.03 ± 0.026,2.034 ± 0.017
GGCCGG,2.08 ± 0.021,2.051 ± 0.015
AGCCGG,2.068 ± 0.019,2.01 ± 0.045
CGCCGU,2.038 ± 0.0097,2.05 ± 0.065
GGCCGU,2.0789 ± 0.0012,2.02 ± 0.007
UGCCGU,2.009 ± 0.019,2.02 ± 0.042
CGCCUA,2.05 ± 0.0096,2.05 ± 0.061
GGCCUA,2.04 ± 0.021,2.01 ± 0.045
UGCCUA,2.03 ± 0.023,2.03 ± 0.023
